# Data published in paper PMC4729829, “BAP1/ASXL1 recruitment and activation for H2A deubiquitination” (Nature Communications, 2016).
# Where a chain is given by its changes, count along the chain named. Names may count otherwise.
# B1: full-length BAP1 (BRCA-1-associated protein 1), Q92560 1-729 (enzyme)
# chain: MNKGWLELESDPGLFTLLVEDFGVKGVQVEEIYDLQSKCQGPVYGFIFLFKWIEERRSRRKVSTLVDDTSVIDDDIVNNMFFAHQLIPNSCATHALLSVLLNCSSVDLGPTLSRMKDFTKGFSPESKGYAIGNAPELAKAHNSHARPEPRHLPEKQNGLSAVRTMEAFHFVSYVPITGRLFELDGLKVYPIDHGPWGEDEEWTDKARRVIMERIGLATAGEPYHDIRFNLMAVVPDRRIKYEARLHVLKVNRQTVLEALQQLIRVTQPELIQTHKSQESQLPEESKSASNKSPLVLEANRAPAASEGNHTDGAEEAAGSCAQAPSHSPPNKPKLVVKPPGSSLNGVHPNPTPIVQRLPAFLDNHNYAKSPMQEEEDLAAGVGRSRVPVRPPQQYSDDEDDYEDDEEDDVQNTNSALRYKGKGTGKPGALSGSADGQLSVLQPNTINVLAEKLKESQKDLSIPLSIKTSSGAGSPAVAVPTHSQPSPTPSNESTDTASEIGSAFNSPLRSPIRSANPTRPSSPVTSHISKVLFGEDDSLLRVDCIRYNRAVRDLGPVISTGLLHLAEDGVLSPLALTEGGKGSSPSIRPIQGSQGSSSPVEKEVVEATDSREKTGMVRPGEPLSGEKYSPKELLALLKCVEAEIANYEACLKEEVEKRKKFKIDDQRRTHNYDEFICTFISMLAQEGMLANLVEQNISVRRRQGVSIGRLHKQRKPDRRKRSRPYKAKRQ
# B2: ASXL1 DEUBAD domain (aa 238-390) (domain or fragment, human, UniProt Q8IXJ9 238-390, looked up)
# chain: ATGQMKRNRGEEIDFETPGSILVNTNLRALINSRTFHALPSHFQQQLLFLLPEVDRQVGTDGLLRLSSSALNNEFFTHAAQSWRERLADGEFTHEMQVRIRQEMEKEKKVEQWKEKFFEDYYGQKLGLTKEESLQQNVGQEEAEIKSGLCVPG
# notes: ASXL1, uniprot Q8IXJ9, DEUBAD domain, residues 238-390; Vector pET-NKI-his-3C-LIC; also called His-ASXL1DEU; source: E. coli, purified (Ni2+ chelating sepharose, Poros HQ anion exchange, Superdex 75 SEC)
# B3: ASXL1 DEUBAD domain (aa 238-390) (domain or fragment, human, UniProt Q8IXJ9 238-390, looked up)
# chain: B2 chain
# notes: ASXL1 (additional sexcombs like 1), human, UniProt Q8IXJ9, DEUBAD domain, aa 238-390; Cloned into pET-NKI-his-3C-LIC; printed as His-ASXL1^DEU; Monomeric in SEC-MALLS; also called His-ASXL1^DEU; WT ASXL1^DEU; source: E. coli, purified (Ni2+ chelating sepharose, Poros HQ anion exchange, Superdex 75 SEC)
# B4: ASXL1 DEUBAD domain (aa 238-390) N310A/E311K/F312A (domain or fragment, human, UniProt Q8IXJ9 238-390, looked up)
# chain: B2 chain with N73A, E74K, F75A
# notes: ASXL1, uniprot Q8IXJ9, DEUBAD domain, residues 238-390, triple mutant of the NEF region; Variant of Dm4; also called ASXL1NEF DEU; NEF; source: E. coli, purified (Ni2+ chelating sepharose, Poros HQ anion exchange, Superdex 75 SEC)
# B5: ASXL1 DEUBAD domain triple mutant N310A/E311K/F312A (domain or fragment, human, UniProt Q8IXJ9 238-390, looked up)
# chain: B2 chain with N73A, E74K, F75A
# notes: ASXL1, human, UniProt Q8IXJ9, DEUBAD domain, aa 238-390, with N310A, E311K and F312A; Variant of m2; also called ASXL1NEF^DEU; NEF; source: E. coli, purified (Ni2+ chelating sepharose, Poros HQ anion exchange, Superdex 75 SEC)
# What was measured:
# [1] = system: BAP1 C91A;ASXL1 DEUBAD (ASXL1DEU); experiment: stopped-flow fluorescence polarization; conditions: 20 C, 20 nM NCP, histone H2A K119 mono-ubiquitinated by RING1B/BMI1, EMSA: 100 nM NCP, 4-12% Tris-glycine native gel, 4 C, FP: 25 mM HEPES pH 7.5, 150 mM NaCl, 0.05% Tween-20, 0.5 mM TCEP
# [2] = target: BAP1/ASXL1^DEU complex (wild type) (human) (UniProt Q92560)
# [3] = target: BRCA-1-associated protein 1 (BAP1), full length, wild type (human) (UniProt Q92560)
# [4] = target: Nucleosome core particle mono-ubiquitinated at H2A K119 with N-terminally TAMRA-labeled ubiquitin (Xenopus | not stated) (UniProt P06897); experiment: fluorescence polarisation; stopped-flow; 20 nM ^TAMRAUb-NCP mixed with various concentrations of inactive (C91A) BAP1 or BAP1/ASXL1^DEU; 25 mM HEPES pH 7.5, 150 mM NaCl, 0.05% Tween-20, 0.5 mM TCEP; 20 °C; kobs against concentration by linear regression
# [5] = target: BAP1/ASXL1DEU complex (human) (UniProt Q92560)
# [6] = target: T1, full-length BAP1 (BRCA-1-associated protein 1) (human), Q92560; experiment: SEC-MALS; miniDawn detector in line with Superdex S75 10/30 (ASXL1DEU), Superose 6 10/30 (BAP1) or Superdex S200 10/30 (BAP1/ASXL1DEU); 10 mM HEPES pH 7.5, 150 mM NaCl, 0.5 mM TCEP, 4 °C; molecular weights from the refractive index signal; conditions: remark: other sources report otherwise
# T1 chain: B1 chain
# [7] = target: T2, full-length BAP1 (BRCA-1-associated protein 1) (human, UniProt Q92560 1-729); experiment: ITC; VP-ITC at 25 °C; 25 mM HEPES pH 7.5, 150 mM NaCl, 10% glycerol, 0.5 mM TCEP; 30 μM ASXL1DEU (syringe) titrated into 13 μM BAP1 variant (cell), 10 or 5 μl injections; one-site binding model; conditions: both partners purified
# T2 construct: BAP1, uniprot Q92560, full length; Vector pFastBac-NKI-his-3C-LIC; no removal of the tag is described; also called FL BAP1; WT BAP1; source: Sf9 cells, purified (Ni2+ chelating sepharose, Poros HQ anion exchange, Superose 6 SEC)
# T2 sequence (looked up): B1 chain
# [8] = target: T3, BAP1 1-710 (lacks the C-terminal extension) (human, UniProt Q92560 1-710); experiment: as above; conditions: both partners purified
# T3 construct: BAP1, uniprot Q92560, residues 1-710; Vector pFastBac-NKI-his-3C-LIC; source: Sf9 cells, purified (Ni2+ chelating sepharose, Poros HQ anion exchange, Superose 6 SEC)
# T3 sequence (looked up): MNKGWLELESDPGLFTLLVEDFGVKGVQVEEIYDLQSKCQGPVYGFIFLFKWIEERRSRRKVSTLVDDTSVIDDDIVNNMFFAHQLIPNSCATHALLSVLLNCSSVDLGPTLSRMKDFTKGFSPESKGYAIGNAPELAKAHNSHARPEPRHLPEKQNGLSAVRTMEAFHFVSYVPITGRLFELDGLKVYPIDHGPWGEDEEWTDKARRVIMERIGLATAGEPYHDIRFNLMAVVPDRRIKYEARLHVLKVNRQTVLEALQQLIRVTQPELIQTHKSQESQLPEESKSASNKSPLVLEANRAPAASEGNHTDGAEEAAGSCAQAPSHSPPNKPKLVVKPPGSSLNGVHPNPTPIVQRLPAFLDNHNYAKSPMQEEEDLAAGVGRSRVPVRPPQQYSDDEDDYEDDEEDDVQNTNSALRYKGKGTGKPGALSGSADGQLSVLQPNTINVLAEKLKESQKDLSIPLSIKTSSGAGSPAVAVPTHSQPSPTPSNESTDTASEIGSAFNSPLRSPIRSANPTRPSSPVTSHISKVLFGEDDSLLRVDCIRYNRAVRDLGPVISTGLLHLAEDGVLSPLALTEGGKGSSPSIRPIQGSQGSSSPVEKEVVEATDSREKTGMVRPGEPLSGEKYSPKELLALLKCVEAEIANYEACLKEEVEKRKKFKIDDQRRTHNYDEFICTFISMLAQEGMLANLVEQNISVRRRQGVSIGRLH
# [9] = target: T4, BRCA-1-associated protein 1 (BAP1), full length, wild type (human, UniProt Q92560 1-729); experiment: SEC-MALS; SEC-MALLS, miniDawn detector; Superdex S75 10/30 (ASXL1^DEU), Superose 6 10/30 (BAP1) or Superdex S200 10/30 (BAP1/ASXL1^DEU); 10 mM HEPES pH 7.5, 150 mM NaCl, 0.5 mM TCEP; 4 °C; conditions: both partners purified
# T4 construct: BAP1 (BRCA-1-associated protein 1), human, UniProt Q92560, full length; Cloned into pFastBac-NKI-his-3C-LIC; In isolation it forms dimers and higher order oligomers (SEC-MALLS); also called WT BAP1; full-length BAP1; source: Sf9 cells, purified (Ni2+ chelating sepharose, Poros HQ anion exchange, Superose 6 SEC)
# T4 sequence (looked up): B1 chain
# [10] = target: T4, BRCA-1-associated protein 1 (BAP1), …; experiment: ITC; 30 μM ASXL1^DEU in the syringe titrated (10 or 5 μl injections) into 13 μM BAP1 variant in the cell; 25 °C; 25 mM HEPES pH 7.5, 150 mM NaCl, 10% glycerol, 0.5 mM TCEP; one-site binding model; conditions: both partners purified
molecule,measurement,setting,value
"TAMRA-Ub-NCP (H2A K119ub, Widom 601 167 bp)",Kd,[1],4000 nM
Non-hydrolyzable H2A-peptide ubiquitin conjugate (ubiquitin linked at the K119 position) (from UniProt P0CG48 1-75),"IC50 of inhibition of Ub-AMC hydrolysis by the BAP1/ASXL1^DEU complex, against BAP1 alone (fold lower than BAP1 alone)",[2],> 10
same,"IC50 of inhibition of Ub-AMC hydrolysis by BAP1 (500 pM enzyme, 2 μM Ub-AMC, conjugate up to 200 μM)",[3],45 μM
BAP1 (C91A)/ASXL1^DEU complex (from UniProt Q92560 1-729; Q8IXJ9 238-390),Kd,[4],4000 nM
non-hydrolyzable H2A-peptide ubiquitin conjugate (H2A-K119) (from UniProt P0CG47 1-75),Supplementary Table 3: IC50 of the non-hydrolyzable H2A ubiquitin conjugate for inhibition of Ub-AMC hydrolysis by BAP1/ASXL1DEU,[5],3300 nM
B1,stoichiometry N,[6],2
B2,stoichiometry N,[7],0.37 ± 0.002
same,Kd,[8],5 ± 0.16 nM
same,stoichiometry N,[8],0.27 ± 0.001
B3,stoichiometry N,[9],2 BAP1 molecules per ASXL1^DEU molecule
same,Kd,[10],18 nM
same,stoichiometry N,[10],0.25 to 0.5
B4,Kd,[7],46 ± 0.14 nM
same,stoichiometry N,[7],0.32 ± 0.003
B5,Kd,[10],45 nM
